Test results: patent publication US20240189442

Key:
SEQ ID NO: 50 = tested on: T1, SEQ ID NO: 50
T1 sequence: LSGRSDNH

SEQ ID NO: 54 = tested on: T2, SEQ ID NO: 54
T2 sequence: GSGRNAQV

SEQ ID NO: 51 = tested on: T3, SEQ ID NO: 51
T3 sequence: SGRSA

SEQ ID NO: 52 = tested on: T4, SEQ ID NO: 52
T4 sequence: LGGSGRSANAILE

SEQ ID NO: 53 = tested on: T5, SEQ ID NO: 53
T5 sequence: LGGSGRNAQVRLE

Sequence of Tissue-type Plasminogen Activator (tPA) (P00750 36-562): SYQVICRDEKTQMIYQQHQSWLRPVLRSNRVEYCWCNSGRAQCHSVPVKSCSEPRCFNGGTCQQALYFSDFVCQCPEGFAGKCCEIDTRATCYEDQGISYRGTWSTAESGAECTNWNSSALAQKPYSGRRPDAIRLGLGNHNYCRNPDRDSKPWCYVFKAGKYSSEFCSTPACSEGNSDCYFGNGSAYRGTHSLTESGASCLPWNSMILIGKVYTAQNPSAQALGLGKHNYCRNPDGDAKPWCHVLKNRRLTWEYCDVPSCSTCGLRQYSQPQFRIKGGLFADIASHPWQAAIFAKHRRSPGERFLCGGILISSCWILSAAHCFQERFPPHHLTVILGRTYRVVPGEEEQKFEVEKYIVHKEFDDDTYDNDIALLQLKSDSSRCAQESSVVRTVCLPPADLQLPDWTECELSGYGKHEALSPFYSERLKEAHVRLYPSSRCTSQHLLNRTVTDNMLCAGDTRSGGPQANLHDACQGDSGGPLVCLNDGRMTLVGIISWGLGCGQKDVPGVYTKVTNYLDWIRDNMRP

Row | Substance | Fold of Increase, fluorescence intensity (FRET cleavage assay) (SEQ ID NO: 50) [fold] | Time to Reach Plateau (hr), fluorescence intensity (FRET cleavage assay) (SEQ ID NO: 50) [h] | Fold of Increase, fluorescence intensity (FRET cleavage assay) (SEQ ID NO: 54) [fold] | Time to Reach Plateau (hr), fluorescence intensity (FRET cleavage assay) (SEQ ID NO: 54) [h] | Fold of Increase, fluorescence intensity (FRET cleavage assay) (SEQ ID NO: 51) [fold] | Time to Reach Plateau (hr), fluorescence intensity (FRET cleavage assay) (SEQ ID NO: 51) [h] | Fold of Increase, fluorescence intensity (FRET cleavage assay) (SEQ ID NO: 52) [fold] | Time to Reach Plateau (hr), fluorescence intensity (FRET cleavage assay) (SEQ ID NO: 52) [h] | Fold of Increase, fluorescence intensity (FRET cleavage assay) (SEQ ID NO: 53) [fold] | Time to Reach Plateau (hr), fluorescence intensity (FRET cleavage assay) (SEQ ID NO: 53) [h] | Fold of Increase, fluorescence intensity; tPA digestion at 2.25 × 10^-2 mg/mL (SEQ ID NO: 50) [fold] | Fold of Increase, fluorescence intensity; tPA digestion at 7.5 × 10^-3 mg/mL (SEQ ID NO: 50) [fold] | Fold of Increase, fluorescence intensity; tPA digestion at 2.25 × 10^-2 mg/mL (SEQ ID NO: 54) [fold] | Fold of Increase, fluorescence intensity; tPA digestion at 7.5 × 10^-3 mg/mL (SEQ ID NO: 54) [fold] | Fold of Increase, fluorescence intensity; tPA digestion at 2.25 × 10^-2 mg/mL (SEQ ID NO: 51) [fold] | Fold of Increase, fluorescence intensity; tPA digestion at 7.5 × 10^-3 mg/mL (SEQ ID NO: 51) [fold] | Fold of Increase, fluorescence intensity; tPA digestion at 2.25 × 10^-2 mg/mL (SEQ ID NO: 52) [fold] | Fold of Increase, fluorescence intensity; tPA digestion at 7.5 × 10^-3 mg/mL (SEQ ID NO: 52) [fold] | Fold of Increase, fluorescence intensity; tPA digestion at 2.25 × 10^-2 mg/mL (SEQ ID NO: 53) [fold] | Fold of Increase, fluorescence intensity; tPA digestion at 7.5 × 10^-3 mg/mL (SEQ ID NO: 53) [fold]
1 | Urokinase-type Plasminogen Activator (uPA) | 4.9 | 1.7 | 4.7 | 1.4 | 9.6 | 1.8 | 3.1 | 1.4 | 3 | 1.6 |  |  |  |  |  |  |  |  |  | 
2 | Tissue-type Plasminogen Activator (tPA) |  |  |  |  |  |  |  |  |  |  | 1.1 | 0.63 | 2.6 | 0.91 | 5.4 | 2.1 | 2.1 | 1.2 | 1.3 | 0.73
